Experimental data: publication PMC4598299

Biological target: hThumb WT (hTERT thumb/CTE domain) (human, UniProt O14746 943-1132)
Test: fluorescence polarization

hThumb WT (hTERT thumb/CTE domain), sequence (O14746 943-1132): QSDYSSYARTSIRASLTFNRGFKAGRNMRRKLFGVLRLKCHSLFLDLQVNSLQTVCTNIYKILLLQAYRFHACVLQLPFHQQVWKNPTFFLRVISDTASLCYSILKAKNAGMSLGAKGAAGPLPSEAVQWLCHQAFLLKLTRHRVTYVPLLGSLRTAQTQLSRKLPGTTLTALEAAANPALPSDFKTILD

B1: hTER CR4/5 (structured_RNA)
RNA: CCCGCCUGGAGGCCGCGGUCCGCCGCGAAGAGUUGGGCUCUGUCAGCCGCGGG
In the case of B1, the Kd is reported as about 400 nM.
